{"source": "paper PMC6367718", "about": "(Cell, 2019)", "binders": {"B1": {"name": "Nb.AT110, purified (VHH)", "VHH": "QVQLQESGGGLVQAGGSLRLSCAASGNIFDADIMGWYRQAPGKERELVASITDGGSTNYADSVKGRFTISRDNAKNTVYLQMNSLKPEDTAVYYCAAIAYPDIPTYFDYDSDYFYWGQGTQVTVSS"}, "B2": {"name": "Nb.AT110i1, carboxypeptidase A-treated (for crystallography) (VHH)", "VHH": "B1 VHH with A31V, N58D, I98V, Y113N"}}, "key": {"[1]": {"target": "T1, TRV055-occupied FLAG-AT1R (human, UniProt P30556)", "T1 chain 1": "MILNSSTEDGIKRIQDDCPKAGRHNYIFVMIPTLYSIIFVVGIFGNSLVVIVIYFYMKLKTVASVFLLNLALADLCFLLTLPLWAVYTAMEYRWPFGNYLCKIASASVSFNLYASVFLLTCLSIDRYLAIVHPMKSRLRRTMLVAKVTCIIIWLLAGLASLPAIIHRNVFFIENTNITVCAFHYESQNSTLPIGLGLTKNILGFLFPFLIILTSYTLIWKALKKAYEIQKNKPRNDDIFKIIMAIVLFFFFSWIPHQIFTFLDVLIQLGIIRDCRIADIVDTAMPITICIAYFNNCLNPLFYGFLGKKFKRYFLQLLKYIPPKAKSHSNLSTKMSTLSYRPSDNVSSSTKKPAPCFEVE", "T1 chain 2": "GVYIHPF", "test": "radioligand binding"}, "crystal structure": {"target": "the molecule itself", "test": "crystal structure"}}, "note": "Numbering of substitutions follows the chain as printed.", "data": [{"binder": "B1", "values": [{"measurement": "log EC50 (M) of the change in the log IC50 of TRV055", "setting": "[1]", "value": -6.6, "unit": "log M"}]}, {"binder": "B2", "values": [{"measurement": "binding result", "setting": "crystal structure", "value": "binds"}]}]}
